Results on one molecule are retold here after article PMC5856381, “Phenotype-specific recombinant haptoglobin polymers co-expressed with C1r-like protein as optimized hemoglobin-binding therapeutics” (BMC Biotechnology, 2018).

The test concerns the target T1, cleavage-site mutated recombinant haptoglobin Hp1S (Q101A, R102A), uncleaved proHp (human).
T1 chain: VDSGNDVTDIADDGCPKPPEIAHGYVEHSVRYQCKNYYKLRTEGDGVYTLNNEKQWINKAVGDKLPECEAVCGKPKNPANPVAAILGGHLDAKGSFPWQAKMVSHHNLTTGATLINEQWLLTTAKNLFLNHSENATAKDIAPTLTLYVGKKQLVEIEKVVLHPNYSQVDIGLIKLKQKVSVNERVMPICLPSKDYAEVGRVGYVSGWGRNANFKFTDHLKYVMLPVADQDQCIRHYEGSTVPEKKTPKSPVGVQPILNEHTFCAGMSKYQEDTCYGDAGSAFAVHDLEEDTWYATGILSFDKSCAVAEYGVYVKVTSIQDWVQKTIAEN
Description: non-reducing SDS-PAGE; Coomassie-stained gel of non-reduced protein samples; disulfide-linked dimers and multimers.

B1: cleavage-site mutated recombinant haptoglobin Hp1S (Q101A, R102A), uncleaved proHp (natural protein)
chain: VDSGNDVTDIADDGCPKPPEIAHGYVEHSVRYQCKNYYKLRTEGDGVYTLNNEKQWINKAVGDKLPECEAVCGKPKNPANPVAAILGGHLDAKGSFPWQAKMVSHHNLTTGATLINEQWLLTTAKNLFLNHSENATAKDIAPTLTLYVGKKQLVEIEKVVLHPNYSQVDIGLIKLKQKVSVNERVMPICLPSKDYAEVGRVGYVSGWGRNANFKFTDHLKYVMLPVADQDQCIRHYEGSTVPEKKTPKSPVGVQPILNEHTFCAGMSKYQEDTCYGDAGSAFAVHDLEEDTWYATGILSFDKSCAVAEYGVYVKVTSIQDWVQKTIAEN
modifications: Uncleaved single-chain proHp1S with signal peptide removed; paper's Q101/R102 (precursor Hp1 numbering) = Q160/R161 of P00738; disulfide-linked dimer; N-glycosylated; C-terminal 8xHis tag omitted / …
Broadly, the stoichiometry N is the number of molecules, sites or subunits per partner or assembly. On to B1, for which the “stoichiometry N” value was found to be 2.
